Test results published in patent US9255257B2, “PmST1 mutants for chemoenzymatic synthesis of sialyl lewis X compounds” (THE REGENTS OF THE UNIVERSITY OF CALIFORNIA, priority 2011, dated 2016).
“Also recorded” adds a separate entry of the source.

B1: M144D (protein, listed as Pasteurella multocida)
chain: MKNRRLNFKLFFLIIFSLFSTLSWSKTITLYLDPASLPALNQLMDFTQNNEDKTHPRIFGLSRFKIPDNIITQYQNIHFVELKDNRPTEALFTILDQYPGNIELNIHLNIAHSVQLIRPILAYRFKHLDRVSIQQLNLYDDGSDEYVDLEKEENKDISAEIKQAEKQLSHYLLTGKIKFDNPTIARYVWQSAFPVKYHFLSTDYFEKAEFLQPLKEYLAENYQKMDWTAYQQLTPEQQAFYLTLVGFNDEVKQSLEVQQAKFIFTGTTTWEGNTDVREYYAQQQLNLLNHFTQAEGDLFIGDHYKIYFKGHPRGGEINDYILNNAKNITNIPANISFEVLMMTGLLPDKVGGVASSLYFSLPKEKISHIIFTSNKQVKSKEDALNNPYVKVMRRLGIIDESQVIFWDSLKQL
modifications: PmST1 wild-type glycosyltransferase family 80 (GT80), GT80 sialyltransferase, Pm0188Ph
B2: M144H (protein)
chain: MKNRRLNFKLFFLIIFSLFSTLSWSKTITLYLDPASLPALNQLMDFTQNNEDKTHPRIFGLSRFKIPDNIITQYQNIHFVELKDNRPTEALFTILDQYPGNIELNIHLNIAHSVQLIRPILAYRFKHLDRVSIQQLNLYDDGSHEYVDLEKEENKDISAEIKQAEKQLSHYLLTGKIKFDNPTIARYVWQSAFPVKYHFLSTDYFEKAEFLQPLKEYLAENYQKMDWTAYQQLTPEQQAFYLTLVGFNDEVKQSLEVQQAKFIFTGTTTWEGNTDVREYYAQQQLNLLNHFTQAEGDLFIGDHYKIYFKGHPRGGEINDYILNNAKNITNIPANISFEVLMMTGLLPDKVGGVASSLYFSLPKEKISHIIFTSNKQVKSKEDALNNPYVKVMRRLGIIDESQVIFWDSLKQL

Columns and labels:
Format in all cases: biochemical
[1] = Apparent kinetics of the α2-3-sialyltransferase activity, Le^xβMU acceptor and CMP-Neu5Ac donor (HPLC); settings: acceptor Le^xβMU
[2] = Apparent kinetics of the α2-3-sialidase activity (HPLC, fluorescent sialoside substrate); settings: substrate Neu5Acα2-3LacβMU
Description: All the sialidase and α2-3-sialyltransferase assays were performed in an HPLC system. Reactions were stopped by adding 10 μL of ethanol. […] The mobile phase was 25% acetonitrile.
Kinetics of the α2-3-sialidase activity of PmST1 mutants.

[3] = Apparent kinetics of the α2-3-sialyltransferase activity, LacβMU acceptor and CMP-Neu5Ac donor (HPLC); settings: acceptor LacβMU
Description: To obtain the apparent kinetic parameters of LacβMU as the acceptor for the α2-3-sialyltransferase activity, the kinetic assays were performed in duplicate in reaction mixtures of 10 μL containing Tris-HCl buffer (100 mM, pH 8.5), a fixed concentration of CMP-Neu5Ac (1 mM), different concentrations of LacβMU (0.2, 0.5, 1.0, 2.0, 5.0, and 9.0 mM) and the mutant proteins (2 μg mL^−1 of E271F, 2 μg mL^−1 of R313Y, and 1.6 μg mL^−1 of E271F/R313Y). All reactions were allowed to proceed at 37° C. for 5 min (E271F), 7 min (R313Y), and 10 min (E271F/R313Y). The apparent kinetic parameters were obtained by fitting the experimental data (the average values of duplicate assay results) into the Michaelis-Menten equation using Grafit 5.0.
To obtain the apparent kinetic parameters of CMP-Neu5Ac as the donor for the α2-3-sialyltransferase activity, the kinetic assays were performed in duplicate in reaction mixtures of 10 μL containing Tris-HCl buffer (100 mM, pH 8.5), a fixed concentration of LacβMU (1 mM), different concentrations of CMP-Neu5Ac (0.1, 0.2, 0.5, 1.0, 2.0, 5.0, 10.0 and 20.0 mM) and the mutant proteins (2 μg mL^−1 of E271F, 2 μg mL^−1 of R313Y, and 1.6 μg mL^−1 of E271F/R313Y). All reactions were allowed to proceed at 37° C. for 2 min (E271F), 7 min (R313Y), and 5 min (E271F/R313Y). The apparent kinetic parameters were obtained by fitting the experimental data (the average values of duplicate assay results) into the Michaelis-Menten equation using Grafit 5.0.
All the sialidase and α2-3-sialyltransferase assays were performed in an HPLC system. Reactions were stopped by adding 10 μL of ethanol. After necessary dilutions were performed to adjust the concentrations of the fluorescent-labeled compounds, the samples were then kept on ice until aliquots of 8 μL were injected and analyzed by a Shimadzu LC-6AD system equipped with a membrane on-line degasser, a temperature control unit, and a fluorescence detector (Shimadzu RF-10AXL). A reverse-phase Premier C18 column (250×4.6 mm i.d., 5 μm particle size, Shimadzu) protected with a C18 guard column cartridge was used. The mobile phase was 25% acetonitrile. The fluorescent compounds LacβMU and Neu5Acα2-3LacβMU were detected by excitation at 325 nm and emission at 372 nm.
Kinetics of the α2-3-sialyltransferase activity of PmST1 mutants by HPLC analysis. […] The supernatants were diluted with 25% acetonitrile and kept on ice until aliquots of 8 μL were injected and analyzed by the Shimadzu LC-6AD system equipped with a membrane on-line degasser, a temperature control unit, and a fluorescence detector (Shimadzu RF-10AXL). […] The fluorophore (MU)-labeled compounds were detected by excitation at 325 nm and emission at 372 nm. […]

[4] = Kinetics of the donor (CMP-Neu5Ac) hydrolysis activity by capillary electrophoresis
Description: The reactions were stopped by adding 10 μL of pre-chilled ethanol. The mixtures were incubated on ice for 30 min and centrifuged at 13,000 rpm for 5 min. The supernatants were diluted with borate buffer (25 mM, pH 9.5) and aliquotes of 5 μL each were injected to a Beckman Coulter P/ACE™ MDQ Capillary Electrophoresis system equipped with a capillary (60 cm×75 μm i.d.) and monitored at 254 nm. The apparent kinetic parameters were obtained by fitting the experimental data (the average values of duplicate assay results) into the Michaelis-Menten equation using Grafit 5.0.

[5] = α2-3-sialidase activity assay with sialyl Le^x substrate (HPLC); settings: for Neu5Ac cleaved from Neu5Acα2-3Le^xβMU: substrate 1 mM, enzyme 4 mg mL^−1, MES pH 5.5, 37° C.
Description: The α2-3-sialidase activity assays of PmST1 and mutants. The reactions were carried out in duplicate in a total volume of 10 μL at 37° C. for 20 hr in MES buffer (100 mM, pH 5.5) containing Neu5Acα2-3Le^xβMU (1 mM) and an enzyme (4 mg mL^−1). Aliquots of 1 μL were withdrawn at 1 hr, 6 hr and 20 hr, and analyzed by HPLC as described above for the α2-3-sialyltransferase assays.

| Molecule | change of efficiency of α2-3-sialyltransferase activity compared to WT (in words) [1] | decrease of α2-3-sialidase activity (catalytic efficiency kcat/Km) compared to wild-type PmST1 [2] | decrease of kcat value, α2-3-sialyltransferase activity, compared to WT [3] | decrease of α2-3-sialyltransferase activity compared to WT [3] | increase of Km value, α2-3-sialyltransferase activity, compared to WT [3] | decrease of efficiency of CMP-Neu5Ac (donor) hydrolysis activity compared to WT [4] | decrease of kcat value, donor hydrolysis, compared to WT [4] | increase of Km value, donor hydrolysis, compared to WT [4] | sialidase activity with Neu5Acα2-3Le^xβMU as substrate (in words) [5] | increase of efficiency of α2-3-sialyltransferase activity compared to WT [1] | increase of kcat value, donor hydrolysis, compared to WT [4] | Neu5Ac cleaved from Neu5Acα2-3Le^xβMU ([5]; 1 h) | Neu5Ac cleaved from Neu5Acα2-3Le^xβMU ([5]; 6 h) | Neu5Ac cleaved from Neu5Acα2-3Le^xβMU ([5]; 20 h) |
| --- | --- | --- | --- | --- | --- | --- | --- | --- | --- | --- | --- | --- | --- | --- |
| B1 | did not change the efficiency of the α2-3-sialyltransferase activity of PmST1 significantly; also recorded: without appreciably changing the efficiency of the α2-3-sialyltransferase activity | 5588 fold | 2 fold | 18 fold | 9 fold | 20 fold | 4.2 fold | 4.9 fold | no sialidase activity |  |  |  |  |  |
| B2 |  | 594 fold |  | 1.3 fold |  | 3.3 fold |  | 8.7 fold | increased sialidase activity compared to the WT PmST1 | 2.6 fold | 2.6 fold | 10.0% | 24.5% | 34.0% |
